The text below walks through data of publication PMC10752894, “Structural basis for DNA proofreading” (Nature Communications, 2023).

The data set deals with ΔG-loop Polγ holoenzyme (Homo sapiens, UniProt P54098;Q9UHN1 26-760+770-1239;26-485, internal_change). Nature of the data set: EMSA; 10 mM Mg2+; affinity not affected by deletion; EMSA: 40 mM Tris-HCl pH 7.9, 60 mM NaCl, 10 mM MgCl2, 5% glycerol, 20 mM 2-mercaptoethanol, 0.1 mg/ml BSA, 150 nM Cy3 scaffold, 10 min room temperature; 0.5% agarose, 0.5X TBE, 4 °C. The conditions noted are these: protein: recombinant; tags: N-terminal His (both subunits); copies: 1;2; label: 5'-Cy3 on DNA24; primer-template, 24 nt 5' template overhang.
ΔG-loop Polγ holoenzyme, sequence (P54098 other isoform, or with tags, fused parts or gaps | mutant, chain 1 of 2): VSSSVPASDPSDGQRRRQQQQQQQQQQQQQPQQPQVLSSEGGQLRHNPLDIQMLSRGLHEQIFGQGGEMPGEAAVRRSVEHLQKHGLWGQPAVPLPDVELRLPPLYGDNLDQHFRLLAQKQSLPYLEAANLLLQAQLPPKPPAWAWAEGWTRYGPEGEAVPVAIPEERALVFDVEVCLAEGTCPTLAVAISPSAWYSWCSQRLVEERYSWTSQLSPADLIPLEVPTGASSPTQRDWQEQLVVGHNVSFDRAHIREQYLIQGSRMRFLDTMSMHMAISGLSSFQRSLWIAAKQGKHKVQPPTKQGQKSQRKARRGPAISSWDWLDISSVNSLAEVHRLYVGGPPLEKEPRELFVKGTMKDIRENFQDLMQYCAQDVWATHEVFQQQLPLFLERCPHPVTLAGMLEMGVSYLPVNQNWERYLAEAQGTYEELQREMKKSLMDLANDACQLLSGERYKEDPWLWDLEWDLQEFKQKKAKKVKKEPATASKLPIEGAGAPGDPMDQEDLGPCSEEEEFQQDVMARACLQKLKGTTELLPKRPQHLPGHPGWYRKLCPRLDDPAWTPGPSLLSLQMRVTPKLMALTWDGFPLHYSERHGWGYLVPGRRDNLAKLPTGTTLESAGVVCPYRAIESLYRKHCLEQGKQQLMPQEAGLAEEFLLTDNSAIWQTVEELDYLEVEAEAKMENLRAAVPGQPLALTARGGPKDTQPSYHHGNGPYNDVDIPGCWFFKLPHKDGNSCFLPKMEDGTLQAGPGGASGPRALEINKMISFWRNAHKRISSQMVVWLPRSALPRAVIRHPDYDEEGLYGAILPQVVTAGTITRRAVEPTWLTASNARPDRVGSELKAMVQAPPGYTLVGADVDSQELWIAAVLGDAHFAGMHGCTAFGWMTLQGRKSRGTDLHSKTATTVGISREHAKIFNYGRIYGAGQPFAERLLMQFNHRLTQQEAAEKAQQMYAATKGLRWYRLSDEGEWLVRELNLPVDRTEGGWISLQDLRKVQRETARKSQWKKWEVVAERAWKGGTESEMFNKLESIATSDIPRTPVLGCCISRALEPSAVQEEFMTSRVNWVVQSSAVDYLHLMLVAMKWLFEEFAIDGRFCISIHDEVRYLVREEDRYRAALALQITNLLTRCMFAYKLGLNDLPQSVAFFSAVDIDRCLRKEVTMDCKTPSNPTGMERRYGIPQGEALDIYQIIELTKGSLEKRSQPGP
ΔG-loop Polγ holoenzyme, sequence (Q9UHN1 26-485, stated change not applied, chain 2 of 2): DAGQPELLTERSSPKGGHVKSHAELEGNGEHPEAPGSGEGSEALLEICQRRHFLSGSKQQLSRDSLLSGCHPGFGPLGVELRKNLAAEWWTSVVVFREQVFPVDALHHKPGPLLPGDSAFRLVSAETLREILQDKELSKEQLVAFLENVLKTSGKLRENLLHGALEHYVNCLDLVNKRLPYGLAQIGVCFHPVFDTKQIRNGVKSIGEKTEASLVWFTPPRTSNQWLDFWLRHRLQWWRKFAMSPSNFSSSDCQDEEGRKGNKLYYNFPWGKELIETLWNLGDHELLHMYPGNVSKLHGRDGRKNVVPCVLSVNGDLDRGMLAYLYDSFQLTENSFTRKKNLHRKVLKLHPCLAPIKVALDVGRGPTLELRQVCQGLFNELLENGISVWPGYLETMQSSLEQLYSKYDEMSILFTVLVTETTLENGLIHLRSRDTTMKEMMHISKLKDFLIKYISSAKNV

B1: DNA24/DNA24TS (dsDNA)
DNA 1: GGTACAACTTGACGACATAGCGTG
DNA 2: CGGTCGAGTCACGACTCCGATTATCACGCTATGTCGTCAAGTTGTACC
With B1, the binding result is listed as “binds”.
